Experimental data taken from article PMC6824681, “Phosphoproteomics reveals that the hVPS34 regulated SGK3 kinase specifically phosphorylates endosomal proteins including Syntaxin-7, Syntaxin-12, RFIP4 and WDR44” (Biochemical Journal, 2019).

Molecular target: T1, GFP-STX12 wild type (Syntaxin-12) (human, UniProt Q86Y82 1-276)
T1 construct: Syntaxin-12 (STX12), human; After IGF1 stimulation about 20% of the stably expressed protein was phosphorylated (Ser139) by phos-tag analysis; also called GFP-STX12 WT; wild-type STX12
T1 sequence (looked up): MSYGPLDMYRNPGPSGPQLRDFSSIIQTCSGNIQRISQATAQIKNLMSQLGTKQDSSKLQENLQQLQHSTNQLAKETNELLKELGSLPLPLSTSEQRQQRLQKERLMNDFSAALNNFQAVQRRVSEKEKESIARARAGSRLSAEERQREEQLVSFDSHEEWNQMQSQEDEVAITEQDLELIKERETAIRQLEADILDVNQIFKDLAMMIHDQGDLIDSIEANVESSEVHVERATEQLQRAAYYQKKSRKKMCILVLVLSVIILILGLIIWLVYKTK
Assay: co-IP; GFP-STX12 WT or S139A immunoprecipitated from 2 mg lysate with GFP-Trap beads, 4°C, 4 h; two washes with lysis buffer with 0.45 M NaCl, one with 0.15 M NaCl; immunoblot of endogenous partners; cells serum-starved overnight, ± 14H (1 µM, 1 h), ± IGF1 (50 ng/ml, 15 min)
Settings: partners not purified

B1: Syntaxin 6 (STX6) (natural protein, human (endogenous in HEK293), UniProt O43752 1-255, looked up)
chain: MSMEDPFFVVKGEVQKAVNTAQGLFQRWTELLQDPSTATREEIDWTTNELRNNLRSIEWDLEDLDETISIVEANPRKFNLDATELSIRKAFITSTRQVVRDMKDQMSTSSVQALAERKNRQALLGDSGSQNWSTGTTDKYGRLDRELQRANSHFIEEQQAQQQLIVEQQDEQLELVSGSIGVLKNMSQRIGGELEEQAVMLEDFSHELESTQSRLDNVMKKLAKVSHMTSDRRQWCAIAILFAVLLVVLILFLVL
notes: Syntaxin-6 (STX6), endogenous in HEK293 cells, detected by immunoblot with anti-STX6; source: endogenous, HEK293 lysate
- fold increase of the amount co-immunoprecipitated, IGF1-stimulated against unstimulated cells: ~2 fold

B2: VTI1A (natural protein, human (endogenous in HEK293), UniProt Q96AJ9 1-217, looked up)
chain: MSSDFEGYEQDFAVLTAEITSKIARVPRLPPDEKKQMVANVEKQLEEAKELLEQMDLEVREIPPQSRGMYSNRMRSYKQEMGKLETDFKRSRIAYSDEVRNELLGDDGNSSENQRAHLLDNTERLERSSRRLEAGYQIAVETEQIGQEMLENLSHDREKIQRARERLRETDANLGKSSRILTGMLRRIIQNRILLVILGIIVVITILMAITFSVRRH
notes: Vti1a (VTI1A), endogenous in HEK293 cells, detected by immunoblot with anti-VTI1A; source: endogenous, HEK293 lysate
- fold increase of the amount co-immunoprecipitated, IGF1-stimulated against unstimulated cells: ~2 fold

B3: VAMP4 (natural protein, human (endogenous in HEK293), UniProt O75379 1-141, looked up)
chain: MPPKFKRHLNDDDVTGSVKSERRNLLEDDSDEEEDFFLRGPSGPRFGPRNDKIKHVQNQVDEVIDVMQENITKVIERGERLDELQDKSESLSDNATAFSNRSKQLRRQMWWRGCKIKAIMALVAAILLLVIIILIVMKYRT
notes: VAMP4, endogenous in HEK293 cells, detected by immunoblot with anti-VAMP4; also called v-SNARE protein VAMP4; source: endogenous, HEK293 lysate
- fold increase of the amount co-immunoprecipitated, IGF1-stimulated against unstimulated cells: ~2 fold
